Measured values taken from PMC4192534.

What was measured:
[1] = biological target: FGF2-C-His (C-terminal 6xHis tagged 18 kDa human FGF2) (human) (UniProt P09038); assay: AlphaScreen or HTRF; N-N orientation: FGF2-C-His bound to both Ni chelate donor and acceptor beads, increasing FGF2-C-His (0-75.5 µM)
[2] = biological target: FGF2-C-His (C-terminal 6xHis tagged 18 kDa human FGF2) (human) (UniProt P09038); assay: AlphaScreen or HTRF; N-N orientation, competition: 1 µM FGF2-C-His on Ni chelate donor and acceptor beads with increasing competitor
[3] = biological target: FGF2-C-His (C-terminal 6xHis tagged 18 kDa human FGF2) (human) (UniProt P09038); assay: AlphaScreen or HTRF; C-N orientation, competition: 50 nM FGF2-N-GST and 50 nM FGF2-C-His with increasing competitor, added 30 min before the beads; signal as percent of control without competitor

Row | EC50 [1] [nM] | IC50 [2] [nM] | IC50 [3] [nM] | Substance
1 | 6350 | – | – | FGF2-C-His (C-terminal 6xHis tagged 18 kDa human FGF2) (from UniProt P09038-2 1-155) (natural protein)
2 | – | 620 | – | FGF2-N-GST (N-terminal GST tagged 18 kDa human FGF2) (from UniProt P09038-2 1-155) (natural protein)
3 | – | – | 180 | Tag-less FGF2 (from UniProt P09038 143-288) (natural protein)
4 | – | 9560 | 265 | platelet factor 4 (PF4) (natural protein)
